From patent publication US20130331333A1 (HADASIT MEDICAL RESEARCH SERVICES AND DEVELOPMENT, published 2013)

Experiments:
Akt (PKB) = Akt (PKB) (UniProt P31749 1-480, limits assumed); test: co-immunoprecipitation of Akt and PAR1 in transfected HU cells
Protocol: Western blot and immunoprecipitation analysis: Cells were activated with agonist peptide […] (SEQ ID NO: 35) for the indicated periods of time and solubilized in lysis buffer containing 10 mM Tris-HCl, pH 7.4, 150 mM NaCl, 1 mM EDTA, 1% TritonX-100, and protease inhibitors ([…] aprotinin, 1 mM phenylmethylsulfonylfluoride, and […] leupeptin) at 4° C. for 30 min. The cell lysates were subjected to centrifugation at 12,000 rpm at 4° C. for 20 min. We used 400 μg of the supernatants with anti-PAR₁ (ATAP, Santa Cruz, Calif. 1 μg), anti-HA (anti-HA sc-7392; Santa Cruz, Calif.), anti-Shc or Etk/Bmx antibodies (10 μg/ml). After overnight incubation, Protein A-Sepharose beads (Amersham Pharmacia Biotech, Buckinghamshire, UK) were added to the suspension (50 μl), which was rotated at 4° C. for 1 h. The immunocomplexes were eluted and run electrophoretically on a 10% SDS-PAGE gel, followed by transfer to an Immobilon-P membrane (Millipore). […] Immunoreactive bands were detected by enhanced chemiluminescence (ECL). […]
Namely, without wishing to be bound by theory the PAR₁-C-tail appears to be an anchor region for association with PH-domain containing proteins. For this purpose, the association between Akt (which is ubiquitously expressed in the cells) and PAR₁ was analyzed, following activation. […]

[1] = target: T1, Etk/Bmx (epithelial tyrosine kinase), wild type (UniProt P51813 1-675); test: co-immunoprecipitation with anti-HA, anti-Bmx blot, MCF7 clones after PAR1 activation
T1 construct: Plasmids after Tsai et al. 2000; also called wt-Etk
T1 sequence (looked up): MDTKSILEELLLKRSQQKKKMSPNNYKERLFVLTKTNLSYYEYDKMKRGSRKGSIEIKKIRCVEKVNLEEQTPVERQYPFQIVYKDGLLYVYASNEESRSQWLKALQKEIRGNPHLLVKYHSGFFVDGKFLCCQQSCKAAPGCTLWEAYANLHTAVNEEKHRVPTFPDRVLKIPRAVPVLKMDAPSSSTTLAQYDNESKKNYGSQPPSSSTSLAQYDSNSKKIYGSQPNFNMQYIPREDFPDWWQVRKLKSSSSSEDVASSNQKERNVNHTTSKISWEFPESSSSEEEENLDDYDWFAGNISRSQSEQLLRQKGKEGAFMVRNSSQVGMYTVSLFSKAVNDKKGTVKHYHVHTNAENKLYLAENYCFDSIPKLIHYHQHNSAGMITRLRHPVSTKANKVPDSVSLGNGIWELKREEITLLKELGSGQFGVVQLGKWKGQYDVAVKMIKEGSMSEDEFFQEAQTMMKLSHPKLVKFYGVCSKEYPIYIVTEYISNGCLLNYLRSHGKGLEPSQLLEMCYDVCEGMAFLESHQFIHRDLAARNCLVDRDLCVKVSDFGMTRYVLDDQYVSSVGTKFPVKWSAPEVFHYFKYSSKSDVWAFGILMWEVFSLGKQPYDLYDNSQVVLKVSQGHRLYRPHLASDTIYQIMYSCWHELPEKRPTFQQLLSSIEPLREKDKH
Protocol: After overnight incubation, Protein A-Sepharose beads (Amersham Pharmacia Biotech, Buckinghamshire, UK) were added to the suspension (50 μl), which was rotated at 4° C. for 1 h. The immunocomplexes were eluted and run electrophoretically on a 10% SDS-PAGE gel, followed by transfer to an Immobilon-P membrane (Millipore). Membranes were blocked and probed with 1 μg/ml amounts of the appropriate antibodies as follows: anti-PAR₁ thrombin receptor mAb, (ATAP, from Santa Cruz, 1:1000); anti-Shc (BD, 1:2000); anti-Bmx (Transduction Laboratories, 1:1000) or anti-PY (Upstate 4G10, 1:2500), suspended in 3% BSA in 10 mM Tris-HCl, pH 7.5, 100 mM NaCl, and 0.5% Tween-20. After washes the blots were incubated with secondary antibodies conjugated to horseradish-peroxidase. Immunoreactive bands were detected by enhanced chemiluminescence (ECL). Membranes were stripped and incubated with anti-IP antibodies to ensure equal protein load.
Based on the competition assay mutated hPar1 constructs with successive replacement of seven residues (378-384; CQRYVYS) were prepared. […] The clones expressing either HA-tagged wt hPar1 or a mutant construct of HA-hPar1-7A were activated and further analyzed for co-immunoprecipitation (IP) of PAR₁ with Etk/Bmx. […] The blots were detected by anti-Bmx (Transduction Laboratories, BD Biosciences, CA) for the identification of Etk/Bmx-associated PAR₁. […]

Chain of Akt (PKB) (P31749 whole entry): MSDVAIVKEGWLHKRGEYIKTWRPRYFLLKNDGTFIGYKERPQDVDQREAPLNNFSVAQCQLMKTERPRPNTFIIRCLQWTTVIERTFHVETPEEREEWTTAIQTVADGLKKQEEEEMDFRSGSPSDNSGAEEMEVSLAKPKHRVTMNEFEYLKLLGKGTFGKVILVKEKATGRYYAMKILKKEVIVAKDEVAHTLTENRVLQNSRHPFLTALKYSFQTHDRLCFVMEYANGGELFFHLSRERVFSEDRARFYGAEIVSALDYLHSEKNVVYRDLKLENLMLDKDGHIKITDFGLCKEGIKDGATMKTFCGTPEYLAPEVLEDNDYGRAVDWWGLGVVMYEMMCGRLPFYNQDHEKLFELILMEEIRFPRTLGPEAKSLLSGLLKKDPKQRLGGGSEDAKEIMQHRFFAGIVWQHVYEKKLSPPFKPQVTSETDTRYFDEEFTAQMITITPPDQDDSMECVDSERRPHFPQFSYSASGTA

binding result (Akt (PKB)): no binding
binding result [1]: no binding
B1: HA-tagged mutant hPar1-7A (receptor, human, UniProt P25116 42-425, looked up)
chain: SFLLRNPNDKYEPFWEDEEKNESGLTEYRLVSINKSSPLQKQLPAFISEDASGYLTSSWLTLFVPSVYTGVFVVSLPLNIMAIVVFILKMKVKKPAVVYMLHLATADVLFVSVLPFKISYYFSGSDWQFGSELCRFVTAAFYCNMYASILLMTVISIDRFLAVVYPMQSLSWRTLGRASFTCLAIWALAIAGVVPLLLKEQTIQVPGLNITTCHDVLNETLLEGYYAYYFSAFSAVFFFVPLIISTVCYVSIIRCLSSSAVANRSKKSRALFLSAAVFCIFIICFGPTNVLLIAHYSFLSHTSTTEAAYFAYLLCVCVSSISCCIDPLIYYYASSEAAAAAAAILCCKESSDPSSYNSSGQLMASKMDTCSSNLNNSIYKKLLT
notes: whole, on cells; Tested in lysates of transfected cells; also called HA-hPar1-7A; PAR1A7; not shown: HA tag
